The text below walks through data of paper PMC8405986.

The target of test [1] is NS3-4A protease Q80K, single-chain proteolytic domain (NS4A21-32-GSGS-NS3 3-181) (hepatitis C virus).
Test [2] concerns the target NS3-4A protease Q80K-A91S, single-chain proteolytic domain (NS4A21-32-GSGS-NS3 3-181) (hepatitis C virus).
In test [3] the target is NS3-4A protease Q80K-A91S-S174N, single-chain proteolytic domain (NS4A21-32-GSGS-NS3 3-181) (hepatitis C virus).
For test [4], the target named is NS3-4A protease Q80K-A91T, single-chain proteolytic domain (NS4A21-32-GSGS-NS3 3-181) (hepatitis C virus).
For test [5], the target named is NS3-4A protease Q80K-A91T-S174N, single-chain proteolytic domain (NS4A21-32-GSGS-NS3 3-181) (hepatitis C virus).
Test [6] has as its target NS3-4A protease Q80K-S174N, single-chain proteolytic domain (NS4A21-32-GSGS-NS3 3-181) (hepatitis C virus).
Test [7] concerns the target NS3-4A protease WT, single-chain proteolytic domain (NS4A21-32-GSGS-NS3 3-181) (hepatitis C virus).

Regarding “viral polyprotein substrate derived from the NS4A/4B cleavage site (SensoLyte 520 HCV; Anaspec) (peptide)”, the KM (μM) of cleavage of the NS4A/4B FRET peptide substrate by purified protease (FRET-based protease assay) in test [1] came out at 1.44 µM; in test [2] it was 0.56 µM; in test [3], 8.16 µM; in test [4] it was 0.48 µM; in test [5], 0.67 µM; in test [6], 0.14 µM. In addition, the KM (μM) of cleavage of the NS4A/4B FRET peptide substrate by purified protease (FRET-based protease assay) in test [7] was 2.71 µM.
